Results on 2 substances are retold here after US20220195404.

The target in the data set is TevCas9 H557A (I-TevI domain-linker-SaCas9 H557A nickase) (Enterobacteria phage T4 / Staphylococcus aureus) (UniProt P13299+J7RUA5). Description: cleavage_in_vitro.

On to “EGFR guide RNA ; EGFR exon 19 deletion DNA substrate”, for which the binding signal (fold rate vs wild-type EGFR) (faster cleavage of exon 19 deletion, PAM not stated) came to 4.

“EGFR guide RNA ; EGFR wild-type DNA substrate”: the relative cleavage rate (fold rate (reference)) (4-fold slower than exon 19 deletion substrate) is 1.
